Reference: article PMC13241479, “GPLD1 is a scavenger carrier mediating lysosomal degradation of extracellular aberrant proteins” (Life Science Alliance, 2026)
Blank lines part the entries; values can stand above or below the binder they belong to.

Biological target: T1, GPLD1-mCherry-sfGFP-His (glycosylphosphatidylinositol-specific phospholipase D1) (human, UniProt P80108 24-840)
T1 construct: glycosylphosphatidylinositol-specific phospholipase D1, human, full-length cDNA amplified from HepG2 cells; fusion of about 160 kD; also called GPLD1-RG; GPLD1-RFP-GFP; not shown: mCherry, C-terminal, kept; sfGFP, C-terminal, kept; His, C-terminal, kept
T1 sequence (looked up): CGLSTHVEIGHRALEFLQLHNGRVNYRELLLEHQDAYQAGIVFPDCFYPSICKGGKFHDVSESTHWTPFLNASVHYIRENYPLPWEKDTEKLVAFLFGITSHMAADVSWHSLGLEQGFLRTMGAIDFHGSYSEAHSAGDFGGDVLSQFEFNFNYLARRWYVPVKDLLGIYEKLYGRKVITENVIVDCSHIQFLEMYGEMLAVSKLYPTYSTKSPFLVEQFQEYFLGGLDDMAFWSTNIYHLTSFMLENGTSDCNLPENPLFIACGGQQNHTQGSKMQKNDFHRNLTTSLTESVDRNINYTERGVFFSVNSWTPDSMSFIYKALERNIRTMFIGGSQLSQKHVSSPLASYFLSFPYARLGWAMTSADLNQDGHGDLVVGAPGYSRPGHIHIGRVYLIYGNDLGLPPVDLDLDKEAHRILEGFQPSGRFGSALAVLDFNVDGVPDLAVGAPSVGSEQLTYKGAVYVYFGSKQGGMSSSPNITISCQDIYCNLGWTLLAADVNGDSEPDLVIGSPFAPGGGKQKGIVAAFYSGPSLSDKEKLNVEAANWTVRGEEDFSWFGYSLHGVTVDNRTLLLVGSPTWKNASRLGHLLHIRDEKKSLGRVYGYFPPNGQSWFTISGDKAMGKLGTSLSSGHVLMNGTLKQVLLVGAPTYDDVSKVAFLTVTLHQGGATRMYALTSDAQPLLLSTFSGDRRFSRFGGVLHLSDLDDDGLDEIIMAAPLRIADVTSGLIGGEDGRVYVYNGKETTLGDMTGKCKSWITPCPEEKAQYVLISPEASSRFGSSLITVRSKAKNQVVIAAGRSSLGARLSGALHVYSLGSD
Assay: co-IP; purified GPLD1-RG (40 nM) or clusterin-RG mixed with His-ALFA-SAA1 (500 nM) or ALFA-tagged Ab42 in PBS, 37°C with shaking for 2 h; aggregates removed at 20,000g; ALFA nanobody beads 2 h at 4°C; washed four times with PBS; immunoblot
Conditions: both partners purified

binding result: binds
B1: His-ALFA-SAA1-N terminus (human SAA1 19-94 aa) (domain or fragment, UniProt P0DJI8 19-94, looked up)
chain: RSFFSFLGEAFDGARDMWRAYSDMREANYIGSDKYFHARGNYDAAKRGPGGAWAAEVITDARENIQRFFGHGAEDS
notes: serum amyloid A1, human, residues 19-94; the N-terminal 76 aa residues, the core amyloidogenic fragment; Prepared in 8 M urea-denatured form for all experiments; aggregates on dilution into PBS; also called His-ALFA-tagged SAA1-N; source: E. coli BL21(DE3) pLysS, purified from inclusion bodies under denaturing conditions (8 M urea, Co-NTA); not shown: His, N-terminal, kept; ALFA, N-terminal, kept

binding result: binds
B2: His-ALFA-SAA1-Full length (human SAA1 19-122 aa) (natural protein, UniProt P0DJI8 19-122, looked up)
chain: RSFFSFLGEAFDGARDMWRAYSDMREANYIGSDKYFHARGNYDAAKRGPGGAWAAEVITDARENIQRFFGHGAEDSLADQAANEWGRSGKDPNHFRPAGLPEKY
notes: The purification of the native full-length form is not described in the methods (only SAA1-N and Ab42 from inclusion bodies); source: E. coli BL21(DE3) pLysS, recombinant, used native; not shown: His, N-terminal, kept; ALFA, N-terminal, kept
